Molecular target: T1, His:AtBPM3 (Arabidopsis thaliana (Mouse-ear cress), UniProt O22286)
T1 chain: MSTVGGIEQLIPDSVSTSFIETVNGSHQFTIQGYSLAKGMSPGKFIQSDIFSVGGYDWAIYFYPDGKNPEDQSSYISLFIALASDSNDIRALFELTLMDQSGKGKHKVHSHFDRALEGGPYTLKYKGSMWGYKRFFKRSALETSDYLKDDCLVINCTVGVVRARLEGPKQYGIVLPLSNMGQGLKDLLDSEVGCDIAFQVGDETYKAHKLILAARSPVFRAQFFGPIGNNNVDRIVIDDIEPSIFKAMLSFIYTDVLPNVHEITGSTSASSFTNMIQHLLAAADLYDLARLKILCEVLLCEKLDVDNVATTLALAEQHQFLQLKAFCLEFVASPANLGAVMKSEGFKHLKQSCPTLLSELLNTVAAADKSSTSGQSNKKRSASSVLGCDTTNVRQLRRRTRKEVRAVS
Experiment: pulldown

B1: GST:AtRAP2.4 (protein)
chain: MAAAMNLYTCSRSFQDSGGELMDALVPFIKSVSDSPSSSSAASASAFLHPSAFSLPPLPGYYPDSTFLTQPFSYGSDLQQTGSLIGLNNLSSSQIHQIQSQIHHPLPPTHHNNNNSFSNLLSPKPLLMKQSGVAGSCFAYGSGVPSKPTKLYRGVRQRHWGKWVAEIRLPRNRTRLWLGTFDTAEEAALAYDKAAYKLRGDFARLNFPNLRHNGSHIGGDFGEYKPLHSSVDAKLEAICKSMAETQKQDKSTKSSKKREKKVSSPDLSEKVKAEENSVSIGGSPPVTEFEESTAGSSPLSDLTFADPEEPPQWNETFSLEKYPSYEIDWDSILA
Q: Does B1 bind?
A: binds

From paper PMC6523098 (2019)
